The values that follow come from patent publication US10501734B2, “Compositions and methods of use thereof for making polypeptides with many instances of nonstandard amino acids” (Yale University, priority 2014, dated 2019).

The nature of series [1]: ATP-PPi exchange assay (amino acid activation). The following applies: for Fold change: relative to progenitor pAcFRS. The series is classed as biochemical.
Series [2] deals with TAG codons. Put plainly: MRM mass spectrometry quantitation of nsAA incorporation in ELP-GFP. Set-up: species or system E. coli. The following applies: for pAcF (Y) / pAcF: calculated as 100%−Y %−F %; for near cognate suppression and mischarging events of K, P, L/I, and Q: content in proteins produced. How it is done:
Purified ELP-GFP protein was dissolved by vortex in protein solubilization buffer (15 mM Tris-HCl, 1.5 mM EDTA, pH=8.5) and the protein concentration was determined by UV280. Solubilization buffer was then added to adjust the concentration of the protein stock solutions to 2.0 μg/μl. For protein digestion, 12.5 μl of this solution (25 μg) was supplemented with 3.125 μl freshly prepared digestion buffer 5×. The composition of the digestion buffer 5× was: 50 mM Tris-HCl pH=8.5, 5 mM EDTA, 50 mM DTT and 2.5% (w/v) freshly prepared acid labile surfactant II (ALS II). Proteins were thermally denatured in a heat block at 95° C. for 5 min and the reaction was then quenched on ice. To alkylate the cysteines, 2.5 μl of 1 M Tris-HCl buffer (pH=8.5) and 5.83 μl freshly prepared 100 mM IAA solution were added. The reaction proceeded for 30 min at room temperature and in the dark. Excess IAA was quenched with 0.875 μl of 200 mM aqueous DTT solution. Next, 1.25 μl LysC enzyme solution, prepared at 7.0×10^−4 activity units/μl in water, were added and protein was digested for 4 h at 37° C. in an incubator without shaking. The digest was supplemented with 157.77 μl 105.6 mM Tris-HCl pH=8.5 buffer containing 5.28 mM CaCl2. For digestion with trypsin, 3.6 μl sequencing grade porcine trypsin (Promega), provided as solution with 0.5 μg/μl trypsin, was added and digestion proceeded for 15 h at 37° C. in an incubator without shaking. The digest was quenched by adding 15.63 μl 20% TFA solution. The pH value of the digest was tested with pH indicator paper to ensure that the pH value was between a value of 1 and 2 to ensure efficient cleavage conditions for ALSII. Detergent was hydrolyzed for 15 min at 23° C. and peptides were desalted using C18 UltraMicroSpin columns (The Nest Group, Southborough, Mass.) following the instructions provided with the columns. Eluted peptides solutions were dried in a vacuum centrifuge which was operated at 45° C. The dried peptides were then dissolved by vortex in 11 μl peptide solvent consisting of 2:3:7 by volume 70% FA, 1-propanol and 0.5% acetic acid. The peptide concentration was determined by UV280 enabling equal loading for LC-MS. Peptide stock solutions were frozen at −80° C. until use. For shotgun proteomic analysis, peptide stock solutions were diluted to a concentration of 60 ng/μl in 3:8 by volume 70% formic acid 0.1 TFA and 5 μl corresponding to 300 ng total peptides were injected for each analysis.
The C-terminally labeled stable isotope labeled peptides (lysine (^13C6^15N2) or arginine (^13C6^15N4)) VPGAGVPGYGVPGVGK, VPGAGVPGFGVPGVGK and FEGDTLVNR were obtained as a lyophilized powder supplied as 1 nmol aliquots. Peptides were dissolved in 30% acetonitrile 0.1% formic acid at a concentration of 20 pmol/μl. Standards were then combined to obtain a master mix with 6.666 pmol/μl of each peptide. Dilution of peptide standards and protein digest for MRM was performed in Agilent polypropylene sample vials with MRM solvent consisting of 100 ng/μl sodium deoxycholate in 3:7 by volume DMSO/0.1% formic acid. Calibration of the instrument was performed with a 11 point calibration curve with 0, 1, 2, 5, 10, 20, 50, 100, 200, 500 and 1000 fmol peptide injected. Peptide stock solutions from the digestion of ELP-GFP were prepared at 5 ng/μl in MRM solvent containing 50 fmol/μl of the stable isotope labeled peptides. MRM solvent blank injections between sample injections and quality control standards analyzed before and after sample injection ensured consistent performance of the MRM platform.
Shotgun discovery data from the analysis of stable isotope labeled peptides and ELP-GFP digests were imported into Skyline^2 software v. 2.5 to extracted suitable transitions for MRM quantitation of peptides. A detailed description of this workflow will be reported somewhere else^3. Briefly, at least 3 transitions were extracted for peptides reporting incorporation of natural and unnatural amino acids at the position of the stop codon. […]

The mark [3] stands for this setting: ELP(10TAG)-GFPMS, nsAA added pAzF, N = 3.
The mark [4] stands for this setting: ELP(10TAG)-GFPMS, nsAA added pAcF.
The mark [5] stands for this setting: ELP(30TAG)-GFPMS, nsAA added pAcF.
[6] abbreviates: ELP(10TAG)MS-ELP(20TAG)-GFP, nsAA added pAcF.
Where [7] appears, read: ELP(20TAG)-ELP(10TAG)MS-GFP, nsAA added pAcF.

B1: pAzFRS.1.t1: pAcFRS variant D158V, I159M, L162D, A167Y, R257G, SEQ ID NO: 11 (protein)
chain: MDEFEMIKRNTSEIISEEELREVLKKDEKSALIGFEPSGKIHLGHYLQIKKMIDLQNAGFDIIILLADLHAYLNQKGELDEIRKIGDYNKKVFEAMGLKAKYVYGSEFQLDKDYTLNVYRLALKTTLKRARRSMELIAREDENPKVAEVIYPIMQVNVMHYDGVDVYVGGMEQRKIHMLARELLPKKVVCIHNPVLTGLDGEGKMSSSKGNFIAVDDSPEEIRAKIKKAYCPAGVVEGNPIMMEIAKYFLEYPLTIKGPEKFGGDLTVNSYEELESLFKNKELHPMRLKNAVAEELIKILEPIRKRL
With B1, in series [1] (nsAA pAzF), the Michaelis constant (Km) is 990 ± 130 µM, the kcat is reported as 4.79 ± 0.67 ×10^−2 s^−1 and the Fold change is listed as 3.32. Also, in series [2] (setting [3]), the “F at TAG position” value is 3.34% and the “Y at TAG position” value amounted to 0.13%.

B2: pAcFRS.1.t1: pAcFRS variant A167D, R257G, SEQ ID NO: 5 (protein)
chain: MDEFEMIKRNTSEIISEEELREVLKKDEKSALIGFEPSGKIHLGHYLQIKKMIDLQNAGFDIIILLADLHAYLNQKGELDEIRKIGDYNKKVFEAMGLKAKYVYGSEFQLDKDYTLNVYRLALKTTLKRARRSMELIAREDENPKVAEVIYPIMQVNGCHYRGVDVDVGGMEQRKIHMLARELLPKKVVCIHNPVLTGLDGEGKMSSSKGNFIAVDDSPEEIRAKIKKAYCPAGVVEGNPIMEIAKYFLEYPLTIKGPEKFGGDLTVNSYEELESLFKNKELHPMRLKNAVAEELIKILEPIRKRL
Turning to B2, in series [1] (nsAA pAcF), the Km was found to be 1680 ± 780 µM, the kcat is given as 6.12 ± 0.74 ×10^−2 s^−1 and the Fold change turned out to be 5.34. In series [1] (nsAA pAzF), the Km was found to be 1490 ± 110 µM, the kcat is listed as 3.65 ± 0.62 ×10^−2 s^−1 and the Fold change came to 1.68. In series [2] (setting [4]), the “F at TAG position” value came out at 0.26%, the “Y at TAG position” value turned out to be 2.42% and the “pAcF (Y)” value was 97.32%. For the same molecule, in series [2] (setting [5]), the “F at TAG position” value is reported as 0.29%, the “Y at TAG position” value was found to be 1.53% and the pAcF is reported as 98.18%. In series [2], the “near cognate suppression and mischarging events of K, P, L/I, and Q” value is “striking decrease”.

B3: pAcFRS: progenitor M. jannaschii based p-acetyl-L-phenylalanine AARS, SEQ ID NO:1 (Young, et al., 2010) (protein, listed as Methanocaldococcus jannaschii)
chain: MDEFEMIKRNTSEIISEEELREVLKKDEKSALIGFEPSGKIHLGHYLQIKKMIDLQNAGFDIIILLADLHAYLNQKGELDEIRKIGDYNKKVFEAMGLKAKYVYGSEFQLDKDYTLNVYRLALKTTLKRARRSMELIAREDENPKVAEVIYPIMQVNGCHYRGVDVAVGGMEQRKIHMLARELLPKKVVCIHNPVLTGLDGEGKMSSSKGNFIAVDDSPEEIRAKIKKAYCPAGVVEGNPIMEIAKYFLEYPLTIKRPEKFGGDLTVNSYEELESLFKNKELHPMRLKNAVAEELIKILEPIRKRL
B3: in series [1] (nsAA pAcF), the Michaelis constant (Km) is 7340 ± 1620 µM, the kcat is reported as 5.01 ± 0.48 ×10^−2 s^−1 and the Fold change came to 1. Besides, in series [1] (nsAA pAzF), the Km turned out to be 3040 ± 270 µM, the kcat was 4.45 ± 0.13 ×10^−2 s^−1 and the Fold change was determined as 1. Moreover, in series [2] (setting [4]), the “F at TAG position” value is given as 0.36%, the “Y at TAG position” value is reported as 1.37% and the “pAcF (Y)” value is given as 98.26%. For the same molecule, in series [2] (setting [5]), the “F at TAG position” value was determined as 0.55%, the “Y at TAG position” value is given as 1.14% and the pAcF is given as 98.31%.

B4: pAzFRS.2.t1: pAcFRS variant E107T, F108Y, Q109M, R257G, SEQ ID NO: 14 (protein)
chain: MDEFEMIKRNTSEIISEEELREVLKKDEKSALIGFEPSGKIHLGHYLQIKKMIDLQNAGFDIIILLADLHAYLNQKGELDEIRKIGDYNKKVFEAMGLKAKYVYGSTYMLDKDYTLNVYRLALKTTLKRARRSMELIAREDENPKVAEVIYPIMQVNGCHYRGVDVAVGGMEQRKIHMLARELLPKKVVCIHNPVLTGLDGEGKMSSSKGNFIAVDDSPEEIRAKIKKAYCPAGVVEGNPIMEIAKYFLEYPLTIKGPEKFGGDLTVNSYEELESLFKNKELHPMRLKNAVAEELIKILEPIRKRL
On to B4, for which, in series [1] (nsAA pAzF), the Km stood at 1400 ± 350 µM, the kcat is 4.14 ± 0.23 ×10^−2 s^−1 and the Fold change turned out to be 2.02. In series [2] (ELP(10TAG)-GFPMS, No nsAA), the “F at TAG position” value was 55.35%, the “Y at TAG position” value is 50.15% and the “pAcF (Y)” value was −5.50%. In series [2] (setting [4]), the “F at TAG position” value worked out at 2.45%, the “Y at TAG position” value amounted to 2.08% and the “pAcF (Y)” value is 95.47%. Besides, in series [2] (setting [6]), the “F at TAG position” value is 3.74%, the “Y at TAG position” value was found to be 2.19% and the pAcF is given as 94.06%. Also, in series [2] (setting [7]), the “F at TAG position” value was 3.25%, the “Y at TAG position” value is listed as 2.17% and the pAcF is 94.58%. Moreover, in series [2] (setting [5]), the “F at TAG position” value is reported as 2.87%, the “Y at TAG position” value is 1.78% and the pAcF is on record as 95.35%. The “near cognate suppression and mischarging events of K, P, L/I, and Q” value in series [2] is given as “striking decrease”.

B5: pAcFRS.2.t1: pAcFRS variant L65V, A167D, R257G, SEQ ID NO: 8 (protein)
chain: MDEFEMIKRNTSEIISEEELREVLKKDEKSALIGFEPSGKIHLGHYLQIKKMIDLQNAGFDIIIVLADLHAYLNQKGELDEIRKIGDYNKKVFEAMGLKAKYVYGSEFQLDKDYTLNVYRLALKTTLKRARRSMELIAREDENPKVAEVIYPIMQVNGCHYRGVDVDVGGMEQRKIHMLARELLPKKVVCIHNPVLTGLDGEGKMSSSKGNFIAVDDSPEEIRAKIKKAYCPAGVVEGNPIMEIAKYFLEYPLTIKGPEKFGGDLTVNSYEELESLFKNKELHPMRLKNAVAEELIKILEPIRKRL
Regarding B5, in series [1] (in vitro biochemical analysis), the “decrease in aminoacylation for pAzF compared with pAcF” value is recorded as 5 fold. For the same molecule, in series [1] (nsAA pAcF), the Km was 2810 ± 890 µM, the kcat is on record as 5.43 ± 0.54 ×10^−2 s^−1 and the Fold change is listed as 2.84. In series [1] (nsAA pAzF), the Km came to 6590 ± 1700 µM, the kcat is 4.22 ± 0.45 ×10^−2 s^−1 and the Fold change is 0.44.

One may read the Km as the concentration of substrate that gives half-maximal velocity.
